Results reported in patent publication US20230399377A1.
Like-named read-outs stand apart in the source and are kept apart here.

Tests used:
[1] = molecular target: recombinant human VEGF-A165 (human) (UniProt P15692); experiment: SPR Biacore; Fc fusion captured on anti-human IgG (Fc) antibody chip, VEGF-A165 as analyte, 1:1 model
[2] = molecular target: T1, human VEGF-B 167/189 (human) (UniProt P49765); experiment: SPR Biacore; Fc fusion captured on anti-human IgG (Fc) antibody chip, VEGF-B167/189 as analyte, 1:1 model
T1 sequence (looked up): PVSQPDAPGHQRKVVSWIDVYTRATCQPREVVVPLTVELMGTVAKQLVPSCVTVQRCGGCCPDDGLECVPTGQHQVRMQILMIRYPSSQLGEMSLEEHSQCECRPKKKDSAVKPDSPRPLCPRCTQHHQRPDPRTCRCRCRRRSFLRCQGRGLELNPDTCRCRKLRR

[3] = molecular target: T2, human PlGF (human) (UniProt P49763); experiment: SPR Biacore; Fc fusion captured on anti-human IgG (Fc) antibody chip, PlGF as analyte, 1:1 model
T2 sequence (looked up): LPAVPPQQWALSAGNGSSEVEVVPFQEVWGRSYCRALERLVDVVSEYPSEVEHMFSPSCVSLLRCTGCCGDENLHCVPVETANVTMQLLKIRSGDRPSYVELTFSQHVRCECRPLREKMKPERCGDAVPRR

[4] = molecular target: recombinant human VEGF-A165 (human) (UniProt P15692)
[5] = molecular target: recombinant human VEGF-A165 (human) (UniProt P15692); remark: listed apart in the source
[6] = molecular target: recombinant human VEGF-A165 (human) (UniProt P15692); remark: listed apart in the source
[7] = molecular target: T2, human PlGF (human); experiment: SPR Biacore; Fc fusion captured on anti-human IgG (Fc) antibody chip, PlGF as analyte, 1:1 model; remark: listed apart in the source
[8] = molecular target: recombinant human VEGF-C (human) (UniProt P49767)
[9] = molecular target: recombinant human VEGF-D (human) (UniProt O43915)
[10] = molecular target: recombinant human VEGF-C (human) (UniProt P49767); remark: listed apart in the source
[11] = molecular target: recombinant human VEGF-C (human) (UniProt P49767); remark: listed apart in the source

Sequence of recombinant human VEGF-A165 (human) (P15692 other isoform, or with tags, fused parts or gaps limits assumed): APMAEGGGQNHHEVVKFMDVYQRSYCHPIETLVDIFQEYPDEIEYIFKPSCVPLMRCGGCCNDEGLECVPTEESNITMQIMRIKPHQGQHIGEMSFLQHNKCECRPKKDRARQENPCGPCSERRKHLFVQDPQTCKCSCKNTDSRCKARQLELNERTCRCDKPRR
Sequence of aflibercept (Fc fusion) (chain): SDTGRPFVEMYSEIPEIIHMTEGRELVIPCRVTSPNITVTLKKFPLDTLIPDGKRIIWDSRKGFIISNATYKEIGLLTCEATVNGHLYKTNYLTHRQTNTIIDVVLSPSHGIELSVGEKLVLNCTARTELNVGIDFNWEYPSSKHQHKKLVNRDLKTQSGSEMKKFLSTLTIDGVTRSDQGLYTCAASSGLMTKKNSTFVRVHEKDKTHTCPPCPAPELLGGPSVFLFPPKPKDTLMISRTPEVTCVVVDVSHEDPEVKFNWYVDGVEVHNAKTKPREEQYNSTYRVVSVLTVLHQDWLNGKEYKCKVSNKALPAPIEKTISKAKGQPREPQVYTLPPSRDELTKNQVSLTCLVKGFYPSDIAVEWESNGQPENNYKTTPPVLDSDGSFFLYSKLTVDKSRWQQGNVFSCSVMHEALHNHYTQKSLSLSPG
Sequence of recombinant human VEGF-C (human) (P49767 103-227 limits assumed): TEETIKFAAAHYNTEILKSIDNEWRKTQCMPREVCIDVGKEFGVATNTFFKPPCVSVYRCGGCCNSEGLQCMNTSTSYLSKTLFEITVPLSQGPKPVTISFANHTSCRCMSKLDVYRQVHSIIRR
Sequence of recombinant human VEGF-D (human) (O43915 93-201 limits assumed): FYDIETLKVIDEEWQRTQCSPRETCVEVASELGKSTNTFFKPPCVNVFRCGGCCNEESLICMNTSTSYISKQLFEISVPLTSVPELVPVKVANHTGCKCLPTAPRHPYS

Kd [1] [pM]	Kd [2] [pM]	Kd [3] [pM]	IC50, inhibition of VEGF-A165 (60 ng/mL) mediated VEGFR-2 signaling, VEGFR-2-NFAT-RE luciferase reporter cells [4] [pM]	IC50, inhibition of VEGF-A165 (100 ng/mL on the sheet) mediated HLEC proliferation, alamarBlue reduction [5] [pM]	IC50, inhibition of VEGF-A165 (60 ng/mL) mediated VEGFR-2 signaling, VEGFR-2-NFAT-RE luciferase reporter cells [6] [pM]	Kd [7] [pM]	IC50, inhibition of VEGF-C (25 ng/mL) mediated VEGFR-2 signaling, VEGFR-2-NFAT-RE luciferase reporter cells [8] [pM]	IC50, MIXED STIMULUS VEGF-C (25 ng/mL) + VEGF-D (150 ng/mL): inhibition of HLEC proliferation, alamarBlue reduction; one IC50 for the mixture [9] [pM]	IC50, MIXED STIMULUS VEGF-C (25 ng/mL) + VEGF-D (150 ng/mL): inhibition of HLEC proliferation, alamarBlue reduction; one IC50 for the mixture [10] [pM]	IC50, inhibition of VEGF-C (40 ng/mL on the sheet) mediated HLEC proliferation, alamarBlue reduction [11] [pM]	Substance
33.6	17.3	480	390	1180	410	484	–	–	–	–	aflibercept (Fc fusion)
–	–	–	–	–	–	–	9.3	1260	1260	1470	recombinant human VEGFR-3 containing 7 extracellular domains (from UniProt P35916 25-775) (receptor)
